Laboratory results published in a protein production outcome set (Wang et al. 2014).

Assay: label from the status in PepcDB records

Row | Sequence | protein production
1 | MLNEEQNSLEEKGGENKNEKETPLKGIHSKIPSLKQALEQTISKIKSSKEFFKQILHNKKKLYIALGALLLLIVLIVALSLLLGHKKENKQTSLQTNTIATNNETPNNTNNANNTEAERQIENLDLSDLIGKDSLKRNDENQVDAIMKKASLLYEQGQKDEALHLFDKAASFSQGIASHNLGVIKFKEKDFNGALDLFDSSIASKENASVSAIDALVSAYHLQDEDLYYHYLKIARDTLYKDYKKSFYSYAYALKSYYAGEYFEALSPLMHPNSNAFLKPNTRLASKLFLMFKDETNAYEQLQKSANAQDELALGLLQARLGHYKQALEHLQHYLHNYPKDLNALMALELVSLKKGDTLKASEALKLASHTKEDTLLANSFYPIKPTINPVFLDKERAKERFWNTQYFEGKRDFIYRLLFYYAPFKVLDSKETLGVIEEGLFLLDSDAQKDLEGASLAFKRGRLMAIADKNALQGLKALENKRLKKALSFFDLSLKNSPNNALLHYNTGLIYAQLENYHKAYFHFLRAFHLNSADYLSAVFAILASHFTHEDTTEFLREITENFYSQDFSSPTQKALLSSLIAYLNYRTNWDMDWLKNAPKKLPFYYALEAAFAKESKDKKLMVQSFGNLKKMLPKDLISNIFYEIVSYYDASIRHTLSIYTLLDSHKISWDQTMQGPILGRHFYTYMGFMVNDLDHQERLLEQKIASLEEGEAPNDWLENLALVSLFQGQYEKASALYQNLISGLKDNETHLKILAGLTYIAQNNYDSAALWLELGKLDDPNNENIRYALGLLYQRKGDLKSALNHFLAIKTSDFSSPYFDFEIDANLLKERLDQEKEGEFLE | failed
2 | MLNIGVKDVKTNLLTPVVTLSIFGSTGAVLPALAIPVITPTQQDIQPALPEPSPLPPTSPPVLEPPPSPPSPAPESENVLIPVQKIIVEGSTLFGPAEFDPILKPLEGQQVTLAELQRATDAITKLYLEGGYLTSRAVLNEQVVRDGVIRIQVLEGRLEDIRIEGNKGIIQRYIRSRIALGAGVPLNGNRLEEQLRLLRTDPLFANLSASLRPGTTPQESVLVVRVVPARWLNAAFGLDNHTSPAIAPNRATAFLGYNNLSGRGDSVYGSYAIGNNLGTFDWGASNTVEFGYSLPLNAMNGTLTIRTLQADSEITRPPALAAFNIRSESSIYQASFRQPVIRTIREELAFGIGFLMQSAQTFVLGVPAPISPGANASGYSASRVLEFTQEYTRRDTQGAWVFRSQFNFGLPIFGATENPSPIPDGNFFSWLGQGQRLQLLWADNLLILRTDVQLTPNSLLPFHQFVIGGPLSVRGYSTNALSGDNGLRFSGEARFPVLRTANRRPIISIGPLFDLGVVWNHSRNPAGAVPNNVIAGLGMGLLVQPTPNLDLQLQYAAPLIDLPGQTRSLQSDGIYFSLTVRP | failed
3 | MLNIKRIKKKMNARNLFATAALLFTASTAFAQTGVQTNTPFGSGEDSIRCRQNISLFTSYAKTGNYKDAYDFWEKAYEECPASTKNIYIYGVKISEWRLQNEQDPAKRQQIIDKILKLYDDRVKYFGEDPKYGTDYIMASKISDYMQYMGDKTDYDKVYEWIKPTIDQHGENATPRALFYYAYSSLNKAIRNEAWHETYIKDYTFASQAMEKQLEVADEKGKEFIQPLKTQIDELFAQSGLADCNTLVKMYGDKLEENKTDTTFLKNMLGMFHASDCETHPLYFQANKYLFAVQPSAIAAMGLAKEAMEGNRYNEASDYLQKAIELSKSAKDRAACNYTLGLLAMKQGSYSTARSYCNKALAEDPAMGDALILIAQMYAATANTVFPGDAIKARCVYFLAVDKLQRAKNIDPSCAPRANRLISQYSRNFPSPADVFMHPDLEKGKSLFVGGWIGESTVIR | failed
4 | MLNLSQNGCSVWVASSTEMVLTPTAVALGKFDGVHLGHQRVIQPVLQSTRSAQTWGDALDSSAQSANPPAAPQERIYSTVVTFRPHPQEFFTGQARTWLTPLDEKVQQLRSLGVDQLVLLPFDKELTALSPEEFVEKILVQQLRCQRISVGQDFCFGKQRRGTAKDLQLIAAKYHIPVSIVPLQTSDGQFLEDGNCGSFESLEDAPISTSLIRQALETGDIKTANRFLGRPYILIGVVVEGEQLGRTIGFPTANLELPKDKFVPRQGVYAVRVKILGESADANIPLEILGVMNIGNRPTVNGTYSSVEVYLLDWSGDLYGKELAVQLVDFLRPEQKFPSLEALKAQIQQDCTVARQILSREN | failed
5 | MLNLSSIMKPNEIMKNWIDPEAKAEAERYDNPIPSRTLILTTLEQLDLPQSHAELVDHFDIHDQKSIDALSHRLIAMVRDGQLSKDGFKFQPIGEQPTFDATVYINNKGFGSAHIDGQNDLLLPERELRLVFNGDRVKVRQTSVDRKGKAWGFITEVTQHRVKQLIGKLAVHEGEYFLQPSAPNAHQPIPLEKELIEHAQAKVGENLRVAIDDYPTREEFSTGHIIQSMSDKADTEIIIPQTILEFGLPYEFPEEVVKDAESFKEPSKKDIEGRIDLRDLPLVTIDGEDARDFDDAVYAEKRSGGGYRVVVAIADVSHYVRLGKPLDDEAQERGTSVYFPHFVLPMLPEALSNGLCSLNPHVDRLCMVCDLKLSRAGRVMSYEFYPSVMHSKARLTYTQVGNYFDGQTDAIPDDKNIQKSLNTLFQLYQTLKGLRAKRHAMEFETIETYMTFDELGGIKEILPRTRNEAHKLIEECMLLANVAAAEFSLQHDIPMLYRVHEAPEFSRIQKVKDFVKLLGLPFPDQPTQADYQRVIEATKDRIDAPSIHAVLLRSMMQAYYGAKNAGHYGLAYEAYTHFTSPIRRYPDLLLHRAIKAHLQQKPYPLSGAALDDAGEQFSRTERRADEASRSVTTWLKCHYMKQHLGEEFIGIISAVTEFGLFVTLKDLYVDGMIHVSQLGDDFFLYDQASQSLVGQNRGQIFGLGDEVKIKVAAVNLDERKIDFELMQQITHAGRVIRQKAPRSSKTQATEQVFNVPSETTSTQERDTRKKEKSKSKPSSYAKKSAKKSSPASVSKPVKEKKKVKVKKKKSNAKPKSE | failed
6 | MLNPRIKWSSRKFGNLFDVILHLFFSDTFLFKEIPVDVDQLLVTWDGKLVSCLPTGTRGNYLCKVSSPPGVHRVSVEVIYGGRRIVKTENVPLIDFDISLSLDKNSLLVKLLGYSDPDTISVKLNGTPLTPSRIGPGEYRVDITERGVAEVEVCISGICKRSIINVEPHLSLSDWDPSVWVGRNLYGYQVMEFLGEGGFSYVMKASSPGGVVALKIPKLTQSPASGLTRNVINVLDDLFKEQSALLELSDSPYLVKLVGVHLDRDSVRRALTEPRYYLEYPPMIVMEFMAGGSVSRLVKDDVQFYSDNWKTAVFMIISRISSGLLKIHEKGYVHCDVKPSNILLDREPPPTAGELYERMKRREVNPKLADLGSAVKIGGVPPGVTLEYSSLEQVTSTRYGGVNPRDDVYSLGATIYYLLTKRYLNSPMIPFMEKALGGGGLDNSVYALRDYSTLEAVGLDSKIVRFIKDMTSENRDKRPSSLEVFNFFTSLVN | failed
7 | MLNPSLDIISLMAYLTSSSLVGLKLLNFSINLFISSSFLTFLKSLKCSLILPISMPANSGILFTAVSFMLARSLAMSSFGVFSSIINLFTTIHLPYLAVKLI | failed
8 | MLNSAGKLIYGLCFLLVVCVNNAMAEVIHSERSLYRNILVEDNGDLRCLKFNVKSTKTRQSCLLKSQPQQLVFNYTKQLLTGLLVNPEPKHILIIGLGGGTMSNTLHQLLPDSYIDNVEIDESVIKVARQYFGFLENDQIKTYSQDGRVFVKRALLKKQEYDWIILDAFNGDYIPEHLMTKEYLEETKRLLSPQGILTANTFSSSQLYRYESATYKAVFGDYYQVSNPDNSNRIILARNSGLDENLYKELAAAEQSESITQLAIKLLAIGVEVKQLYKNIKSTATHQDWPDDSPVLTDQFSPANLLNIDVD | failed
9 | MLPDVFRADTGSRSLIQAQSDAQAVLTWLAEHADRPATLAAYRKEAERLLLWLAPRRQTLAQVKREDVLDYRRFLASPHPAEQWLGPARPRSHPDWKPFSKPLSPASVEHSLTVLGALFAYLNDAGYLNGNPFKLLRRRGARKSAQEIERFLDADCWRHLQATLNGLPRGSDREIRHAERALWLFTLLYLTGARRAEAAAARACDLARRNGNWWWHVVGKGGVSARIPLSDELMDALARYRLSLGLPPQPAADEDTPLVCRVGSKGQAKPLSDKAIYLVCKEVFGRAQAAAPNEDIRAKLRAASTHWLRHTAASHQLEAGVPLLLVSQNLRHASIQTTRRYLHSEEDARHEASRLHKLKRDS | failed
10 | MLPHSGRMVLIDRITRYGDDFVEAGAQVKPDHILLAGGMLPYTAFIELMAQAVGAYAGIQARKNARPVRLGFLPGTRKLEIFAQSVPVGTHLPATAHMSIQDAGVWACPTANCVGRMRRKLRPEHSFQTAFWHAPHSTCTAPNTMTEQLTPSEQAHIRRTTMTETVLITGSNRGIGKAAALEHHHHHH | failed
11 | MLPKRQLFLDRLNQALAWSQFSGVPGALLLIDLGLPAHLDGSPSLSPDAEENLEIIANRLQAYVRPHETLAHLNHHQFGLLLLDPDVQLRAEERAHGIQTLIRDRLAGFEGGAHIGIVPLTPETPATVLLQAAEAAAMTARSQQQGHLSLEASLEHHHHHH | not failed
12 | MLPLNDYLQPFGLVIKPMQEDLTPYLGIKVKSEAGQEKITFVAAHSPAAMAGISPQDLLLAINGVRVGAEQLSLRLKDYQANDMIQLTVFHQDLLRTVDVVLASPQANRYEVVPIADPSDSQLEHHHHHH | not failed
13 | MLPLTLIAILSLGIVEGLDPYKGLLFSYYFYSFRKVKESYVVPIVSTITYYIVGILIVEWLNISDNILTRGIMFSLLLVHVLIKLVIGKVLHYPSNMRPKILNVIQWSAINSIIQMNFIILLTLSILSKPSLILLPITVIIVRETTYCLSVKNNKILLKLTEYNFDYFYLITVLLLGIVIILPLL | failed
14 | MLPMLLWLVANLFLAPAAEGFHGMNKTNTWAVILSSSRYFFNLRHTTNALAMYHLCRKHGMDDDHILVFLSDSYACDPRKPNPATIYGAPAQAEQPNLYGCNIRVDYASYDVGVRRFLGVLQGRYDENTPPSRRLDTDENSNIIIYAAGHSAEKFFKFQDSEFMSSTDIADTLMMMWEQRRYRKLVFLVDTCRALSLCLEIKAPNVVCLASSEAHLDSYSHHLDPPSGFTVITRWTFEFLEVLKDSKCRPENGEVTLLQKSFYDFNYGPERLSLPQPLSEPAHFDAVNRPNAIREWKMDEFFCEQDRDKIPVELRYDLF | failed
15 | MLPPPPSASPAARENTDPGGHRADSGVSYSKIDPVGTFVRLLGLIAPAWQAVLGATLLGSGTIASNIGLMATAAFLIASAALHPPAGKLMLAIVGVRFFGITRAVCRYLERYVNHSITLGILGRLRVAFYRTLEPLIPAGLQGHHSGDLLSRAVADVATLENFYLRVLNPPLVALPVAAGVFLFLAHFGRTLALAWMGAFLAAGVIFPVGVTIVGRGVMRRQGEARAALNTALVDTVQGLADILVFDHGRQQQEYIATLDRQYLHLQGRKAGLNGLANALTSLASNLALWAVLVLAIPLVNRGQIDGVYLAMLALTAAAALEAAKPLPMLFPHLEGSLAAARRIFALSDTRPAGDPAGPVPHPRDFSLRVQGLRFRYGPGEPPALDGIDFDVPSGARIAIVGPSGAGKSTLVNLLLRFWDYEEGAILLGGYDLKAYPPEELQRFIGVVAQPTHLFHATIAENLLLARPDATREEMERAAREARLHEFIQVLPRGYDTLIGEEGFKLSGGQRQRLAIARALLQNAPILILDEATTGLDAVTEREVMDSIRHLMEGRTTLVITHRLVGLEDMDKILVLDRGRLVQQGRHAELLRQEGLYRHLWQLQQEALP | failed
16 | MLPPYNYMDNGTLKGISIDLLEAITEKMGKKVTREEIHLVSWTEGYQAALTRNNTVLFVTARTPEREQSFKWVGPIYSDKYVLFAKRDPGVTIDGPEDLKEYRIGVISDDVAAQQLLNIGLEHHHHHH | not failed
17 | MLQKPVQLLLWVAICLLVLLTVYVFFMLDMLWSPFWLVIKTIFIPLIISIFISYLLLPVTEWLHGKGLPRTLSILVIYVLFFGGIGWALYKGVPVLIVQLTDLSENIPMFAETYNGLLLHVHNHTDDWPDGMHHRIDKMIRQTEAFFAGTIEGAISGIRNVLDYFLIAATIPFLVFYMVKDIELMKKTVWYLTPKSWRKRGSAFLRDVDDSLGDYIRGQLLVCLILGVIAGISFWVFGLPYPLILGLISGVTNVIPYFGPFIGAVPALLIAMTISVKAVLVVVITVFILQFMEGNILSPFIVGRSLKMHPVVIMLALLAGGELAGIVGMILAVPATAVLKVMMIHFLRMRTEH | not failed
